Data: paper PMC2756588

T1: Bud14, P27637
T1 sequence (P27637 247-328, looked up): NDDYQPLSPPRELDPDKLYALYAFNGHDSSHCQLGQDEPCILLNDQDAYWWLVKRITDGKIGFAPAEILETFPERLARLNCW

T2: Boi2, P39969
T2 sequence (P39969 32-116, looked up): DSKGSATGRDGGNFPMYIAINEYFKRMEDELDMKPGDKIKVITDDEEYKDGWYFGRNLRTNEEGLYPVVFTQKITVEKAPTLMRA

T3: Sla1-2, P32790
T3 sequence (P32790 60-140, looked up): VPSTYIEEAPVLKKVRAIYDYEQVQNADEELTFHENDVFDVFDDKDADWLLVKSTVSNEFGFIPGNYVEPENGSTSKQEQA

T4: Lsb1, P53281
T4 sequence (P53281 45-122, looked up): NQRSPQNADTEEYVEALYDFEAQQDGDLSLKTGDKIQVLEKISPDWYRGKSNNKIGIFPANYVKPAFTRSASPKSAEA

T5: Pex13, P80667
T5 sequence (P80667 295-386, looked up): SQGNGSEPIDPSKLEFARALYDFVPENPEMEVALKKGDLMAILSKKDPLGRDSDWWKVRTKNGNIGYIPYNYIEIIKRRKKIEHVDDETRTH

T6: Hof1, Q05080
T6 sequence (Q05080 590-669, looked up): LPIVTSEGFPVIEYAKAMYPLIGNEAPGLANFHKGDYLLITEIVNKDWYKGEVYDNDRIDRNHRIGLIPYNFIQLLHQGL

T7: Cdc25, P04821
T7 sequence (P04821 50-136, looked up): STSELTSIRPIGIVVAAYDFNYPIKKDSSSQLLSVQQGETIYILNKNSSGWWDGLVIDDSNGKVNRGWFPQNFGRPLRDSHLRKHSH

T8: Pin3, Q06449
T8 sequence (Q06449 53-122, looked up): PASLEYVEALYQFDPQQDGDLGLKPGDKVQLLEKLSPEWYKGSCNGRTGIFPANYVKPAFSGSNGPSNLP

T9: Bzz1-2, P38822
T9 sequence (P38822 568-633, looked up): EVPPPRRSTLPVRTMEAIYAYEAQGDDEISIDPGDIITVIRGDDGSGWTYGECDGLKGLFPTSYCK

T10: Hse1, P38753
T10 sequence (P38753 208-285, looked up): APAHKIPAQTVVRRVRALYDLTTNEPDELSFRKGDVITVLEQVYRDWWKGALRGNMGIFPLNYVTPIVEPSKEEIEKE

T11: Bbc1, P47068
T11 sequence (P47068 1-78, looked up): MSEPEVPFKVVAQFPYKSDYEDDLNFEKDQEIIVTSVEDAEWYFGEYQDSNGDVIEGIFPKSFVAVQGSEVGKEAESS

T12: Myo5, Q04439
T12 sequence (Q04439 1072-1160, looked up): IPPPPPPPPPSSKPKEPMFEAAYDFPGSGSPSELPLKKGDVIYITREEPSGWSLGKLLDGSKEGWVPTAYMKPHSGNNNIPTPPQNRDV

T13: Boi1, P38041
T13 sequence (P38041 1-86, looked up): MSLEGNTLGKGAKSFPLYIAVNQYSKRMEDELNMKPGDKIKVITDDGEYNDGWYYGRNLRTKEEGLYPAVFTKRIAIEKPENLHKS

T14: Bzz1-1, P38822
T14 sequence (P38822 478-572, looked up): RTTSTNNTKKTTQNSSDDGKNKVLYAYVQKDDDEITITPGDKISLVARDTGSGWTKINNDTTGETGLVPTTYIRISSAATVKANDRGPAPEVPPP

T15: Sla1-3, P32790
T15 sequence (P32790 344-424, looked up): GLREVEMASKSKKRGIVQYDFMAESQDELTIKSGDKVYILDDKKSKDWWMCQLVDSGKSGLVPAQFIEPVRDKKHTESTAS

T16: Abp1, P15891
T16 sequence (P15891 535-592, looked up): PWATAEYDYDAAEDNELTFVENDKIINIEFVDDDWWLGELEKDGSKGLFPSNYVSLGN

T17: Cyk3, Q07533
T17 sequence (Q07533 1-83, looked up): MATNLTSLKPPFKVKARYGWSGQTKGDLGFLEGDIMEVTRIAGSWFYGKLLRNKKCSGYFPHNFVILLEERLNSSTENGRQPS

T18: Lsb3, P43603
T18 sequence (P43603 385-451, looked up): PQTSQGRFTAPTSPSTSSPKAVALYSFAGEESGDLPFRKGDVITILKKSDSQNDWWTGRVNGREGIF

T19: Fus1, P11710
T19 sequence (P11710 432-512, looked up): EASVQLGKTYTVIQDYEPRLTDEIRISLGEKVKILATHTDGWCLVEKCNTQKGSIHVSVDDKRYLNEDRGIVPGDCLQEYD

T20: Lsb4, P32793
T20 sequence (P32793 402-468, looked up): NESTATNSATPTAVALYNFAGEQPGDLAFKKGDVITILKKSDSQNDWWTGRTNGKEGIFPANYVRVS

T21: Nbp2, Q12163
T21 sequence (Q12163 103-180, looked up): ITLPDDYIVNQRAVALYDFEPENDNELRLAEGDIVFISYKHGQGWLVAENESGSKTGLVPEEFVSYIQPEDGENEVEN

B1: unnamed (peptide)
chain: ISNFVPPNLPMRRFK
B2: unnamed (peptide)
chain: TTAPALPSLPPPPLL
B3: unnamed (peptide)
chain: DDEDVPPQLPTRTKS
B4: unnamed (peptide)
chain: LKRITSPPLPPRADS
B5: unnamed (peptide)
chain: EEEEEHPPLPARRKS
B6: unnamed (peptide)
chain: TTNRGPPPLPPRANV

Tests used:
Experiment in all cases: SPOT array
Bud14, P27637 = target: T1, Bud14, P27637; conditions: median of control spots 956
Boi2, P39969 = target: T2, Boi2, P39969; conditions: median of control spots 1161
Sla1-2, P32790 = target: T3, Sla1-2, P32790; conditions: median of control spots 712
Rvs167, P39743 = conditions: median of control spots 2707
Sequence of Rvs167, P39743 (P39743 419-482): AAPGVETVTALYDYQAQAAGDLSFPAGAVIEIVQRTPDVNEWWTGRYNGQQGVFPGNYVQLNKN

Lsb1, P53281 = target: T4, Lsb1, P53281; conditions: median of control spots 388
Pex13, P80667 = target: T5, Pex13, P80667; conditions: median of control spots 1341
GST = conditions: median of control spots 978
Myo3, P36006 = conditions: median of control spots 468
Hof1, Q05080 = target: T6, Hof1, Q05080; conditions: median of control spots 4086
Cdc25, P04821 = target: T7, Cdc25, P04821; conditions: median of control spots 969
Pin3, Q06449 = target: T8, Pin3, Q06449; conditions: median of control spots 2171
Bzz1-2, P38822 = target: T9, Bzz1-2, P38822; conditions: median of control spots 4538
Sho1, P40073 = conditions: median of control spots 1148
Sequence of Sho1, P40073 (P40073 287-367): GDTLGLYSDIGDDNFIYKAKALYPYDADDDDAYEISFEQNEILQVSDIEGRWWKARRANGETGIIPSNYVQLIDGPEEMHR

Hse1, P38753 = target: T10, Hse1, P38753; conditions: median of control spots 1727
Bem1-2, P29366 = conditions: median of control spots 4347
Sequence of Bem1-2, P29366 (P29366 139-227): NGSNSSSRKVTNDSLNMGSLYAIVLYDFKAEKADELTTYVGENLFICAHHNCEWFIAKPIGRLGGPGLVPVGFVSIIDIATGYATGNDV

Bbc1, P47068 = target: T11, Bbc1, P47068; conditions: median of control spots 796
Myo5, Q04439 = target: T12, Myo5, Q04439; conditions: median of control spots 471
Bem1-1, P29366 = conditions: median of control spots 4282
Sequence of Bem1-1, P29366 (P29366 55-141): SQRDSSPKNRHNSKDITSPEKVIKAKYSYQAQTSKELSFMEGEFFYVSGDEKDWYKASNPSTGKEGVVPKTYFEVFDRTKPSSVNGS

Boi1, P38041 = target: T13, Boi1, P38041; conditions: median of control spots 1162
Bzz1-1, P38822 = target: T14, Bzz1-1, P38822; conditions: median of control spots 4446
Sla1-3, P32790 = target: T15, Sla1-3, P32790; conditions: median of control spots 5475
Abp1, P15891 = target: T16, Abp1, P15891; conditions: median of control spots 935
Cyk3, Q07533 = target: T17, Cyk3, Q07533; conditions: median of control spots 1451
Lsb3, P43603 = target: T18, Lsb3, P43603; conditions: median of control spots 406
Fus1, P11710 = target: T19, Fus1, P11710; conditions: median of control spots 1200
Lsb4, P32793 = target: T20, Lsb4, P32793; conditions: median of control spots 397
Nbp2, Q12163 = target: T21, Nbp2, Q12163; conditions: median of control spots 357

Binder	SPOT intensity (Bud14, P27637)	SPOT intensity (Boi2, P39969)	SPOT intensity (Sla1-2, P32790)	SPOT intensity (Rvs167, P39743)	SPOT intensity (Lsb1, P53281)	SPOT intensity (Pex13, P80667)	SPOT intensity (GST)	SPOT intensity (Myo3, P36006)	SPOT intensity (Hof1, Q05080)	SPOT intensity (Cdc25, P04821)	SPOT intensity (Pin3, Q06449)	SPOT intensity (Bzz1-2, P38822)	SPOT intensity (Sho1, P40073)	SPOT intensity (Hse1, P38753)	SPOT intensity (Bem1-2, P29366)	SPOT intensity (Bbc1, P47068)	SPOT intensity (Myo5, Q04439)	SPOT intensity (Bem1-1, P29366)	SPOT intensity (Boi1, P38041)	SPOT intensity (Bzz1-1, P38822)	other results
B1	8	0	39	2140	63	671	1	59	5	0	217	19	65	72	7	199	37	1	0	1	SPOT intensity (Sla1-3, P32790): 3; SPOT intensity (Abp1, P15891): 129; SPOT intensity (Cyk3, Q07533): 0; SPOT intensity (Lsb3, P43603): 588; SPOT intensity (Fus1, P11710): 0; SPOT intensity (Lsb4, P32793): 452; SPOT intensity (Nbp2, Q12163): 1
B2	0	0	0	0	0	4	0	728	6110	0	0	2	0	0	0	0	651	0	0	0	SPOT intensity (Sla1-3, P32790): 0; SPOT intensity (Abp1, P15891): 0; SPOT intensity (Cyk3, Q07533): 0; SPOT intensity (Lsb3, P43603): 0; SPOT intensity (Fus1, P11710): 0; SPOT intensity (Lsb4, P32793): 0; SPOT intensity (Nbp2, Q12163): 0
B3	1	1	0	1260	58	97	1	0	0	0	2	0	0	2	3	5	0	0	2	0	SPOT intensity (Sla1-3, P32790): 1; SPOT intensity (Abp1, P15891): 0; SPOT intensity (Cyk3, Q07533): 0; SPOT intensity (Lsb3, P43603): 556; SPOT intensity (Fus1, P11710): 0; SPOT intensity (Lsb4, P32793): 897; SPOT intensity (Nbp2, Q12163): 0
B4	3	0	0	4040	892	145	0	75	520	0	11	6	65	38	0	33	4	0	1	0	SPOT intensity (Sla1-3, P32790): 0; SPOT intensity (Abp1, P15891): 40; SPOT intensity (Cyk3, Q07533): 0; SPOT intensity (Lsb3, P43603): 566; SPOT intensity (Fus1, P11710): 0; SPOT intensity (Lsb4, P32793): 700; SPOT intensity (Nbp2, Q12163): 0
B5	0	0	0	222	32	155	0	0	0	0	0	3	0	0	3	9	0	0	0	4	SPOT intensity (Sla1-3, P32790): 1; SPOT intensity (Abp1, P15891): 0; SPOT intensity (Cyk3, Q07533): 0; SPOT intensity (Lsb3, P43603): 683; SPOT intensity (Fus1, P11710): 0; SPOT intensity (Lsb4, P32793): 590; SPOT intensity (Nbp2, Q12163): 1
B6	1	0	0	4620	1110	470	0	129	425	0	48	8	58	750	11	33	206	0	0	0	SPOT intensity (Sla1-3, P32790): 1; SPOT intensity (Abp1, P15891): 48; SPOT intensity (Cyk3, Q07533): 0; SPOT intensity (Lsb3, P43603): 892; SPOT intensity (Fus1, P11710): 0; SPOT intensity (Lsb4, P32793): 743; SPOT intensity (Nbp2, Q12163): 0
